Source: publication PMC5465072

T1: CMG2 38-218 (Homo sapiens), P58335
T1 chain: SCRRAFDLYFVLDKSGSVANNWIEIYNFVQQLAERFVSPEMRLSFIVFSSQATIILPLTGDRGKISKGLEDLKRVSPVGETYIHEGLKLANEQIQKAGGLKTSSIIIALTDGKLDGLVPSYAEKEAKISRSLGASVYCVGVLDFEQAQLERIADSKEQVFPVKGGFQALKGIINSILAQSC

B1: HPCNAMF (scrambled CMNHFPA) (peptide)
chain: HPCNAMF
B2: CLRFT (peptide)
chain: CLRFT
B3: CMNHFPA (peptide)
chain: CMNHFPA

Tests used:
Settings in all cases: modification not given
[1] = biological target: T2, Protective antigen (PA) 488-735 (Bacillus anthracis), P13423; test: ELISA
[2] = biological target: T1, CMG2 38-218 (Homo sapiens), P58335; test: sandwich ELISA (competition with His6-PA 488-735)
[3] = biological target: T1, CMG2 38-218 (Homo sapiens), P58335; test: microscale thermophoresis
[4] = biological target: T1, CMG2 38-218 (Homo sapiens), P58335; test: sandwich ELISA (competition with His6-PA 596-735)
[5] = biological target: T2, Protective antigen (PA) 488-735 …

Binder	IC50 [1]	IC50 [2]	Kd [3]	IC50 [4]	Kd [5]
B1	153 µM	–	–	–	–
B2	–	77.1 µM	30.2 µM	71.3 µM	–
B3	49.8 µM	–	–	–	38.2 µM
